{
  "source": "the Human Domainome abundance scans (Beltran et al. 2025)",
  "parents": {"B1": {"name": "POU domain, class 4, transcription factor 1, residues 266 to 347; numbered along this chain, Q01851 (parent)", "chain": "RELEAFAERFKQRRIKLGVTQADVGSALANLKIPGVGSLSQSTICRFESLTLSHNNMIALKPILQAWLEEAEGAQREKMNKP"}},
  "note": "± gives the uncertainty stated by the source.",
  "data": [
    {"variants_of": "B1", "assay": "abundance fitness (aPCA) (normalised: wild type 0, dead -1); higher = more abundant; growth selection in yeast, the domain comes from the species named", "conditions": "Homo sapiens", "values": [
      {"variant": "RELEAFAERFKQRRIKLGVTQADVGSALANLKIPGVGSLSQSTICRFESLTLSHNNMIILKPILQAWLEEAEGAQREKMNKP", "abundance fitness": "-0.021 ± 0.12"},
      {"variant": "RELEAFAERFKQRRIKLGVTQADVGSALANLKIPGVGSLSQSTICRFESLTLSHNNMIKLKPILQAWLEEAEGAQREKMNKP", "abundance fitness": "0.035 ± 0.079"},
      {"variant": "RELEAFAERFKQRRIKLGVTQADVGSALANLKIPGVGSLSQSTICRFESLTLSHNNMILLKPILQAWLEEAEGAQREKMNKP", "abundance fitness": "-0.027 ± 0.05"},
      {"variant": "RELEAFAERFKQRRIKLGVTQADVGSALANLKIPGVGSLSQSTICRFESLTLSHNNMIMLKPILQAWLEEAEGAQREKMNKP", "abundance fitness": "0.009 ± 0.067"},
      {"variant": "RELEAFAERFKQRRIKLGVTQADVGSALANLKIPGVGSLSQSTICRFESLTLSHNNMINLKPILQAWLEEAEGAQREKMNKP", "abundance fitness": "-0.278 ± 0.2"},
      {"variant": "RELEAFAERFKQRRIKLGVTQADVGSALANLKIPGVGSLSQSTICRFESLTLSHNNMIPLKPILQAWLEEAEGAQREKMNKP", "abundance fitness": "-0.368 ± 0.1"},
      {"variant": "RELEAFAERFKQRRIKLGVTQADVGSALANLKIPGVGSLSQSTICRFESLTLSHNNMIQLKPILQAWLEEAEGAQREKMNKP", "abundance fitness": "0.056 ± 0.071"},
      {"variant": "RELEAFAERFKQRRIKLGVTQADVGSALANLKIPGVGSLSQSTICRFESLTLSHNNMIRLKPILQAWLEEAEGAQREKMNKP", "abundance fitness": "-0.051 ± 0.037"},
      {"variant": "RELEAFAERFKQRRIKLGVTQADVGSALANLKIPGVGSLSQSTICRFESLTLSHNNMISLKPILQAWLEEAEGAQREKMNKP", "abundance fitness": "-0.016 ± 0.05"},
      {"variant": "RELEAFAERFKQRRIKLGVTQADVGSALANLKIPGVGSLSQSTICRFESLTLSHNNMITLKPILQAWLEEAEGAQREKMNKP", "abundance fitness": "-0.011 ± 0.061"},
      {"variant": "RELEAFAERFKQRRIKLGVTQADVGSALANLKIPGVGSLSQSTICRFESLTLSHNNMIVLKPILQAWLEEAEGAQREKMNKP", "abundance fitness": "0.011 ± 0.04"},
      {"variant": "RELEAFAERFKQRRIKLGVTQADVGSALANLKIPGVGSLSQSTICRFESLTLSHNNMIWLKPILQAWLEEAEGAQREKMNKP", "abundance fitness": "-0.198 ± 0.05"},
      {"variant": "RELEAFAERFKQRRIKLGVTQADVGSALANLKIPGVGSLSQSTICRFESLTLSHNNMIYLKPILQAWLEEAEGAQREKMNKP", "abundance fitness": "-0.072 ± 0.12"},
      {"variant": "RELEAFAERFKQRRIKLGVTQADVGSALANLKIPGVGSLSQSTICRFESLTLSHNNMIAAKPILQAWLEEAEGAQREKMNKP", "abundance fitness": "-0.344 ± 0.24"},
      {"variant": "RELEAFAERFKQRRIKLGVTQADVGSALANLKIPGVGSLSQSTICRFESLTLSHNNMIACKPILQAWLEEAEGAQREKMNKP", "abundance fitness": "0.074 ± 0.17"},
      {"variant": "RELEAFAERFKQRRIKLGVTQADVGSALANLKIPGVGSLSQSTICRFESLTLSHNNMIAEKPILQAWLEEAEGAQREKMNKP", "abundance fitness": "-0.581 ± 0.26"},
      {"variant": "RELEAFAERFKQRRIKLGVTQADVGSALANLKIPGVGSLSQSTICRFESLTLSHNNMIAFKPILQAWLEEAEGAQREKMNKP", "abundance fitness": "-0.355 ± 0.23"},
      {"variant": "RELEAFAERFKQRRIKLGVTQADVGSALANLKIPGVGSLSQSTICRFESLTLSHNNMIAGKPILQAWLEEAEGAQREKMNKP", "abundance fitness": "-0.696 ± 0.48"},
      {"variant": "RELEAFAERFKQRRIKLGVTQADVGSALANLKIPGVGSLSQSTICRFESLTLSHNNMIAHKPILQAWLEEAEGAQREKMNKP", "abundance fitness": "-0.392 ± 0.29"},
      {"variant": "RELEAFAERFKQRRIKLGVTQADVGSALANLKIPGVGSLSQSTICRFESLTLSHNNMIAIKPILQAWLEEAEGAQREKMNKP", "abundance fitness": "-0.303 ± 0.23"},
      {"variant": "RELEAFAERFKQRRIKLGVTQADVGSALANLKIPGVGSLSQSTICRFESLTLSHNNMIANKPILQAWLEEAEGAQREKMNKP", "abundance fitness": "-0.223 ± 0.26"},
      {"variant": "RELEAFAERFKQRRIKLGVTQADVGSALANLKIPGVGSLSQSTICRFESLTLSHNNMIASKPILQAWLEEAEGAQREKMNKP", "abundance fitness": "-0.253 ± 0.23"},
      {"variant": "RELEAFAERFKQRRIKLGVTQADVGSALANLKIPGVGSLSQSTICRFESLTLSHNNMIATKPILQAWLEEAEGAQREKMNKP", "abundance fitness": "-0.452 ± 0.31"},
      {"variant": "RELEAFAERFKQRRIKLGVTQADVGSALANLKIPGVGSLSQSTICRFESLTLSHNNMIAVKPILQAWLEEAEGAQREKMNKP", "abundance fitness": "-0.029 ± 0.087"},
      {"variant": "RELEAFAERFKQRRIKLGVTQADVGSALANLKIPGVGSLSQSTICRFESLTLSHNNMIAWKPILQAWLEEAEGAQREKMNKP", "abundance fitness": "-0.605 ± 0.2"},
      {"variant": "RELEAFAERFKQRRIKLGVTQADVGSALANLKIPGVGSLSQSTICRFESLTLSHNNMIALAPILQAWLEEAEGAQREKMNKP", "abundance fitness": "-0.074 ± 0.043"},
      {"variant": "RELEAFAERFKQRRIKLGVTQADVGSALANLKIPGVGSLSQSTICRFESLTLSHNNMIALCPILQAWLEEAEGAQREKMNKP", "abundance fitness": "-0.012 ± 0.057"},
      {"variant": "RELEAFAERFKQRRIKLGVTQADVGSALANLKIPGVGSLSQSTICRFESLTLSHNNMIALDPILQAWLEEAEGAQREKMNKP", "abundance fitness": "-0.635 ± 0.15"},
      {"variant": "RELEAFAERFKQRRIKLGVTQADVGSALANLKIPGVGSLSQSTICRFESLTLSHNNMIALEPILQAWLEEAEGAQREKMNKP", "abundance fitness": "-0.022 ± 0.056"},
      {"variant": "RELEAFAERFKQRRIKLGVTQADVGSALANLKIPGVGSLSQSTICRFESLTLSHNNMIALFPILQAWLEEAEGAQREKMNKP", "abundance fitness": "-0.349 ± 0.11"},
      {"variant": "RELEAFAERFKQRRIKLGVTQADVGSALANLKIPGVGSLSQSTICRFESLTLSHNNMIALGPILQAWLEEAEGAQREKMNKP", "abundance fitness": "-0.305 ± 0.037"},
      {"variant": "RELEAFAERFKQRRIKLGVTQADVGSALANLKIPGVGSLSQSTICRFESLTLSHNNMIALHPILQAWLEEAEGAQREKMNKP", "abundance fitness": "-0.265 ± 0.18"},
      {"variant": "RELEAFAERFKQRRIKLGVTQADVGSALANLKIPGVGSLSQSTICRFESLTLSHNNMIALIPILQAWLEEAEGAQREKMNKP", "abundance fitness": "0.165 ± 0.25"},
      {"variant": "RELEAFAERFKQRRIKLGVTQADVGSALANLKIPGVGSLSQSTICRFESLTLSHNNMIALLPILQAWLEEAEGAQREKMNKP", "abundance fitness": "-0.198 ± 0.046"}
    ]}
  ]
}
